Experimental data: the Human Domainome abundance scans (Beltran et al. 2025)
± gives the uncertainty stated by the source.

B1: Receptor-interacting serine/threonine-protein kinase 2, residues 438 to 518; numbered along this chain, O43353 (parent)
chain: QWIQSKREDIVNQMTEACLNQSLDALLSRDLIMKEDYELVSTKPTRTSKVRQLLDTTDIQGEEFAKVIVQKLKDNKQMGLQ

Variants of: B1
Assay: abundance fitness (aPCA) (normalised: wild type 0, dead -1); higher = more abundant; growth selection in yeast, the domain comes from the species named
Conditions: Homo sapiens
In the case of W2K, the abundance fitness is reported as -0.435 ± 0.14.
Work on W2L yielded an abundance fitness of -0.45 ± 0.074.
W2M showed an abundance fitness of -0.4 ± 0.12.
W2N gave an abundance fitness of -0.196 ± 0.2.
Work on W2Q yielded an abundance fitness of -0.411 ± 0.14.
Work on W2R yielded an abundance fitness of -0.41 ± 0.088.
In the case of W2T, the abundance fitness is reported as -0.609 ± 0.24.
With W2V the abundance fitness was -0.632 ± 0.1.
With I3D the abundance fitness was -0.051 ± 0.34.
Work on I3F yielded an abundance fitness of -0.771 ± 0.47.
I3G showed an abundance fitness of -0.87 ± 0.25.
Variant I3K has an abundance fitness of -0.975 ± 0.38.
I3L gave an abundance fitness of -0.205 ± 0.091.
Work on I3M yielded an abundance fitness of -0.292 ± 0.17.
Variant I3P has an abundance fitness of -0.194 ± 0.24.
In the case of I3S, the abundance fitness is reported as -0.767 ± 0.22.
I3T showed an abundance fitness of -0.745 ± 0.42.
In the case of Q4A, the abundance fitness is reported as -0.078 ± 0.12.
Variant Q4F has an abundance fitness of -0.166 ± 0.15.
Work on Q4G yielded an abundance fitness of -0.685 ± 0.13.
Q4I showed an abundance fitness of 0.135 ± 0.39.
Variant Q4M has an abundance fitness of 0.279 ± 0.29.
Q4P showed an abundance fitness of -0.923 ± 0.35.
In the case of Q4R, the abundance fitness is reported as -0.045 ± 0.1.
Variant Q4S has an abundance fitness of 0.09 ± 0.15.
In the case of Q4T, the abundance fitness is reported as 0.458 ± 0.5.
With Q4V the abundance fitness was -0.756 ± 0.34.
S5D showed an abundance fitness of 0.224 ± 0.27.
In the case of S5E, the abundance fitness is reported as 0.372 ± 0.27.
For S5F, the abundance fitness was -0.636 ± 0.43.
With S5G the abundance fitness was -0.177 ± 0.24.
For S5H, the abundance fitness was -0.824 ± 0.36.
S5K gave an abundance fitness of -0.171 ± 0.27.
In the case of S5L, the abundance fitness is reported as -0.216 ± 0.15.
S5P showed an abundance fitness of -0.623 ± 0.15.
Variant S5Q has an abundance fitness of -0.088 ± 0.23.
For S5R, the abundance fitness was -0.125 ± 0.16.
S5T showed an abundance fitness of -0.315 ± 0.14.
In the case of S5V, the abundance fitness is reported as -0.384 ± 0.16.
In the case of S5W, the abundance fitness is reported as -0.639 ± 0.46.
K6F showed an abundance fitness of 0.095 ± 0.44.
R7A gave an abundance fitness of -0.334 ± 0.081.
In the case of R7C, the abundance fitness is reported as -1.04 ± 0.31.
R7E showed an abundance fitness of -0.42 ± 0.13.
R7F gave an abundance fitness of -0.027 ± 0.17.
R7G gave an abundance fitness of -0.563 ± 0.079.
R7I showed an abundance fitness of -0.838 ± 0.38.
For R7K, the abundance fitness was 0.032 ± 0.14.
R7L showed an abundance fitness of -0.545 ± 0.085.
For R7M, the abundance fitness was -1.09 ± 0.42.
Work on R7P yielded an abundance fitness of -0.956 ± 0.14.
Work on R7Q yielded an abundance fitness of -0.463 ± 0.13.
In the case of R7S, the abundance fitness is reported as -0.419 ± 0.073.
Variant R7V has an abundance fitness of -0.611 ± 0.085.
For R7W, the abundance fitness was -0.673 ± 0.12.
For R7Y, the abundance fitness was -0.501 ± 0.17.
Variant E8A has an abundance fitness of -0.367 ± 0.076.
Work on E8C yielded an abundance fitness of -0.994 ± 0.41.
In the case of E8D, the abundance fitness is reported as 0.031 ± 0.24.
With E8F the abundance fitness was -0.691 ± 0.32.
With E8G the abundance fitness was -0.29 ± 0.057.
For E8H, the abundance fitness was -0.884 ± 0.28.
With E8I the abundance fitness was -0.768 ± 0.45.
With E8K the abundance fitness was -0.319 ± 0.23.
E8L gave an abundance fitness of -0.507 ± 0.079.
E8M gave an abundance fitness of -0.272 ± 0.16.
E8P gave an abundance fitness of -0.527 ± 0.066.
E8Q showed an abundance fitness of -0.569 ± 0.11.
For E8R, the abundance fitness was -0.36 ± 0.055.
In the case of E8S, the abundance fitness is reported as -0.276 ± 0.068.
E8T gave an abundance fitness of -0.209 ± 0.077.
In the case of E8V, the abundance fitness is reported as -0.301 ± 0.072.
E8W gave an abundance fitness of -0.918 ± 0.12.
For D9A, the abundance fitness was -0.288 ± 0.095.
D9C gave an abundance fitness of -0.341 ± 0.19.
D9E gave an abundance fitness of -0.317 ± 0.15.
Work on D9F yielded an abundance fitness of -0.498 ± 0.28.
In the case of D9G, the abundance fitness is reported as -0.532 ± 0.092.
For D9H, the abundance fitness was -0.336 ± 0.19.
D9I gave an abundance fitness of 0.255 ± 0.16.
In the case of D9K, the abundance fitness is reported as -0.437 ± 0.15.
Work on D9M yielded an abundance fitness of -0.328 ± 0.19.
With D9N the abundance fitness was -0.731 ± 0.27.
D9P showed an abundance fitness of -0.898 ± 0.15.
In the case of D9Q, the abundance fitness is reported as -0.151 ± 0.077.
D9S showed an abundance fitness of -0.303 ± 0.07.
Variant D9T has an abundance fitness of -0.331 ± 0.098.
In the case of D9V, the abundance fitness is reported as -0.172 ± 0.078.
D9W showed an abundance fitness of -0.147 ± 0.088.
D9Y gave an abundance fitness of -0.107 ± 0.15.
I10A gave an abundance fitness of -1.04 ± 0.31.
I10C gave an abundance fitness of -0.712 ± 0.17.
For I10F, the abundance fitness was -0.877 ± 0.47.
I10G showed an abundance fitness of -0.764 ± 0.11.
I10H gave an abundance fitness of -0.862 ± 0.23.
Variant I10K has an abundance fitness of -0.619 ± 0.16.
In the case of I10L, the abundance fitness is reported as -0.264 ± 0.087.
Variant I10M has an abundance fitness of -0.421 ± 0.23.
Work on I10N yielded an abundance fitness of -0.476 ± 0.12.
I10P gave an abundance fitness of -0.622 ± 0.14.
I10Q showed an abundance fitness of -0.541 ± 0.16.
Work on I10S yielded an abundance fitness of -0.618 ± 0.098.
I10T showed an abundance fitness of -0.697 ± 0.15.
I10V showed an abundance fitness of -0.628 ± 0.12.
Variant I10W has an abundance fitness of -0.968 ± 0.29.
For I10Y, the abundance fitness was -0.864 ± 0.28.
V11A showed an abundance fitness of -0.49 ± 0.075.
For V11C, the abundance fitness was -0.288 ± 0.09.
V11E gave an abundance fitness of -0.376 ± 0.11.
Variant V11F has an abundance fitness of -0.777 ± 0.46.
Variant V11G has an abundance fitness of -0.553 ± 0.063.
Work on V11H yielded an abundance fitness of -0.656 ± 0.29.
In the case of V11I, the abundance fitness is reported as 0.091 ± 0.12.
V11L showed an abundance fitness of -0.373 ± 0.074.
In the case of V11M, the abundance fitness is reported as -0.099 ± 0.15.
With V11N the abundance fitness was -0.577 ± 0.27.
With V11P the abundance fitness was -0.503 ± 0.087.
With V11Q the abundance fitness was -0.776 ± 0.21.
Variant V11R has an abundance fitness of -0.534 ± 0.081.
Work on V11S yielded an abundance fitness of -0.575 ± 0.071.
Variant V11W has an abundance fitness of -1.03 ± 0.21.
For N12A, the abundance fitness was 0.073 ± 0.093.
N12C showed an abundance fitness of -0.028 ± 0.1.
Variant N12D has an abundance fitness of -0.089 ± 0.14.
Work on N12E yielded an abundance fitness of 0.199 ± 0.21.
Variant N12F has an abundance fitness of -0.62 ± 0.16.
In the case of N12G, the abundance fitness is reported as -0.162 ± 0.065.
In the case of N12H, the abundance fitness is reported as -0.108 ± 0.11.
Work on N12I yielded an abundance fitness of -0.486 ± 0.21.
For N12K, the abundance fitness was -0.039 ± 0.15.
With N12L the abundance fitness was -0.068 ± 0.059.
N12M gave an abundance fitness of -0.002 ± 0.19.
N12P gave an abundance fitness of -0.978 ± 0.23.
In the case of N12Q, the abundance fitness is reported as -0.248 ± 0.23.
N12R showed an abundance fitness of -0.008 ± 0.059.
For N12S, the abundance fitness was -0.213 ± 0.071.
Variant N12V has an abundance fitness of -0.374 ± 0.086.
Work on N12W yielded an abundance fitness of -0.829 ± 0.19.
N12Y gave an abundance fitness of -0.382 ± 0.4.
In the case of Q13A, the abundance fitness is reported as 0.032 ± 0.19.
Variant Q13E has an abundance fitness of -0.027 ± 0.27.
Q13F showed an abundance fitness of -0.314 ± 0.45.
Variant Q13G has an abundance fitness of -0.365 ± 0.13.
In the case of Q13L, the abundance fitness is reported as -0.541 ± 0.16.
For Q13M, the abundance fitness was -0.369 ± 0.48.
Q13R gave an abundance fitness of -0.527 ± 0.18.
Q13S gave an abundance fitness of 0.072 ± 0.16.
In the case of Q13T, the abundance fitness is reported as -0.19 ± 0.28.
In the case of Q13V, the abundance fitness is reported as -0.199 ± 0.23.
With T15A the abundance fitness was -0.645 ± 0.11.
T15C gave an abundance fitness of -0.877 ± 0.16.
Variant T15D has an abundance fitness of -0.152 ± 0.11.
For T15E, the abundance fitness was -0.767 ± 0.27.
Work on T15G yielded an abundance fitness of -0.566 ± 0.071.
In the case of T15H, the abundance fitness is reported as -1.13 ± 0.35.
With T15I the abundance fitness was -1.12 ± 0.34.
Variant T15K has an abundance fitness of -0.736 ± 0.24.
For T15L, the abundance fitness was -0.75 ± 0.12.
T15N gave an abundance fitness of -0.518 ± 0.093.
In the case of T15P, the abundance fitness is reported as -0.492 ± 0.08.
For T15Q, the abundance fitness was -0.126 ± 0.14.
With T15R the abundance fitness was -0.937 ± 0.11.
With T15S the abundance fitness was 0.158 ± 0.042.
In the case of T15V, the abundance fitness is reported as -0.777 ± 0.11.
T15W gave an abundance fitness of -1.05 ± 0.21.
For T15Y, the abundance fitness was -0.946 ± 0.31.
For E16C, the abundance fitness was -0.853 ± 0.23.
